The text below walks through data of patent US20230201357, “D-DIMER-SPECIFIC APTAMERS AND METHODS OF USE IN DIAGNOSTICS, THERAPEUTIC AND THERANOSTIC PURPOSES” (APTAMER DIAGNOSTIC, INC., published 2023).

The target of data set [1] is T1, D-dimer (cross-linked fibrin degradation product) (Homo sapiens, UniProt P02671;P02675;P02679 SEQ:1-87,SEQ:1-328,SEQ:1-324). Briefly: SPR; SPRi, biotinylated aptamer on streptavidin gold, 10 nM D-dimer in flow; ka 2.0e6, kd 0.0048 per s. Particulars: tags: none stated; about 180 kDa; chain copies: 2 of each chain (inferred); label: 3' biotin. How it is done:
Interaction between ADI1701 and D-dimer was analyzed by a SPR device, Openplex SPRi system from Horiba Scientific. Various amounts of ADI1701 (5 fmol, 50 fmmol and 500 fmol) were immobilized on a gold sensor chip, and D-dimer (10 nM) was injected to the flow cell, and ScrubberGen Ver. 2.0g software was used to subtract the references. […] Nonspecific binding of D-dimer to ADI1701scram was subtracted at the respective concentrations.
Further studies on the specificity and affinity of binding of ADI1701 to D-dimer were performed using Surface plasmon resonance (SPR). SPR has become an important optical bio-sensing technology in the areas of biochemistry, biology, and medical sciences because of its real-time, label-free, and noninvasive nature. Various amounts of biotinylated ADI1701 were immobilized on streptavidin coated gold surface and D-dimer to flow through. It is shown herein that ADI1701 binds directly to D-Dimer (FIG. 8).

The target of data set [2] is T2, Fibrinogen (UniProt P02671-2;P02675;P02679-2 P02671-2:20-644,P02675:31-491,P02679-2:27-437). Briefly: ELONA; 25 nM aptamer, immobilized fibrinogen; low D-dimer plasma also negative. Particulars: chain copies: 2; label: 3' biotin. How it is done:
(§1) 25 nM of either 3′ Bioitnilated ADI1701, Truncation 1, Truncation 2, Truncation 3, Truncation 4, Truncation 5, scrambled sequence 1, scrambled sequence 2 and scrambled sequence 3 was incubated with D-Dimer protein immobilized on a 96 well ELISA plate. As a control, 3′ Biotin-ADI1701 was incubated with fibrinogen or two plasma samples from donors with low D-Dimer levels (<200 ng/ml) immobilized on the plate. Absorbance was measured after incubation with streptavidin horse radish peroxidase bound to the biotinylated aptamer in the presence of the substrate 3,3′,5,5′-Tetramethylbenzidine (TMB). […] Deleting three or five bases from the 5′ end of ADI1701 decreased the binding to D-dimer by 33%. […] The values shown are subtracted from the absorbance measured in the presence of albumin that was used as the blank.
(§2) Various truncations were made to the 3′ Biotinylated-ADI1701 aptamer from the 5′ and 3′-ends. Deleting as little as 3 bases from the 5′-end or 5 bases from the 3′-end affected the binding of ADI1701 to D-dimer (FIG. 7). Again, none of the scrambled sequences with Biotin label on either the 5′ or 3′-ends presented any binding to D-dimer.

Data set [3] addresses T2, Fibrinogen. As to the kind of experiment: EMSA; native PAGE, no band overlapping fibrinogen. The settings on record: chain copies: 2.
Data set [4] has as its target T1, D-dimer (cross-linked fibrin …). Briefly: ELONA; estimated from saturation curve; text says 5' biotin, FIG. 6 legend says 3' biotin. Particulars: tags: none stated; about 180 kDa; chain copies: 2 of each chain (inferred); label: 5' biotin.
The next data set concerns the target Bovine serum albumin (Bos taurus, UniProt P02769 P02769:25-607). Briefly: latex bead agglutination, no agglutination at highest BSA amount. How it is done: (§3) FIGS. 10A and 10B show photomicrographs of Latex-Aptamer Beads at Different Preparations and at Two Extreme Levels of D-Dimer Concentration. […] The well concentration of the proteins are (serial dilution from left to right, per 150 uL total well volume): 10 nM, 5 nM, 2.5 nM and 1.25 nM of D-Dimer; 10 nM, 5 nM, 2.5 nM and 1.25 nM of Fibrinogen; 750 nM, 375 nM, 188 nM and 94 nM of the BSA. (Ref: NB3, p 19-20, Aug. 29, 2017). 50 ul of aptamer conjugated to the latex beads were added to each well.
(§4) FIG. 10 represents an image of the wells section of a 96-well plate with the initial testing of coagulation.

Data set [5] concerns the target T1, D-dimer (cross-linked fibrin …). As to the kind of experiment: latex bead agglutination; seen at lower concentration than with fibrinogen. Particulars: tags: none stated; about 180 kDa; chain copies: 2 of each chain (inferred). How it is done:
as §3, §4

For data set [6] the target is unchanged. Briefly: ELONA; 25 nM. The settings on record: tags: none stated; about 180 kDa; chain copies: 2 of each chain (inferred); label: biotin (5' or 3'). The protocol:
as §1, §2

T1 sequence (P02671 130-216, chain 1 of 3): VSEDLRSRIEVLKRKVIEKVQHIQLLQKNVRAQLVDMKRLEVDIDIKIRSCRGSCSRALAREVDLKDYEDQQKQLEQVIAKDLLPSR
T1 sequence (P02675 164-491, chain 2 of 3): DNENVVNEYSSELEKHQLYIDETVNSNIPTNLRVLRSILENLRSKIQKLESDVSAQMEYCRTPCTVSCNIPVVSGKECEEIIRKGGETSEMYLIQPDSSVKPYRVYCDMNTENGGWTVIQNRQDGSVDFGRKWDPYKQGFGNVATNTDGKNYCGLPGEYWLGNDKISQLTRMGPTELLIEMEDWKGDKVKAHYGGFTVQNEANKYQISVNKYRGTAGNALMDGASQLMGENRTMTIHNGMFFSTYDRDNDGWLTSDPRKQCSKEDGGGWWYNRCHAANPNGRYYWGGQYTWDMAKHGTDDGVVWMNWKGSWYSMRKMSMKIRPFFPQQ
T1 sequence (P02679 other isoform, or with tags, fused parts or gaps, chain 3 of 3): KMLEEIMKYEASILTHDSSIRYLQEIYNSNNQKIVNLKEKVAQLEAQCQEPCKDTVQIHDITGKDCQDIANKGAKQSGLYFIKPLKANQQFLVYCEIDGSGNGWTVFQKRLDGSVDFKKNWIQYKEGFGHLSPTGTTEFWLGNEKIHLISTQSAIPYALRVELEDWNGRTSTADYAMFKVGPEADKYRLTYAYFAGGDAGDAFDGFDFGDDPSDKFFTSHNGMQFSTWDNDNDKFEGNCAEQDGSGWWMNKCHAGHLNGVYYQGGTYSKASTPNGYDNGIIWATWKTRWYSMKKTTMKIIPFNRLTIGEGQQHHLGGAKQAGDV
T2 sequence (P02671 other isoform, or with tags, fused parts or gaps, chain 1 of 3): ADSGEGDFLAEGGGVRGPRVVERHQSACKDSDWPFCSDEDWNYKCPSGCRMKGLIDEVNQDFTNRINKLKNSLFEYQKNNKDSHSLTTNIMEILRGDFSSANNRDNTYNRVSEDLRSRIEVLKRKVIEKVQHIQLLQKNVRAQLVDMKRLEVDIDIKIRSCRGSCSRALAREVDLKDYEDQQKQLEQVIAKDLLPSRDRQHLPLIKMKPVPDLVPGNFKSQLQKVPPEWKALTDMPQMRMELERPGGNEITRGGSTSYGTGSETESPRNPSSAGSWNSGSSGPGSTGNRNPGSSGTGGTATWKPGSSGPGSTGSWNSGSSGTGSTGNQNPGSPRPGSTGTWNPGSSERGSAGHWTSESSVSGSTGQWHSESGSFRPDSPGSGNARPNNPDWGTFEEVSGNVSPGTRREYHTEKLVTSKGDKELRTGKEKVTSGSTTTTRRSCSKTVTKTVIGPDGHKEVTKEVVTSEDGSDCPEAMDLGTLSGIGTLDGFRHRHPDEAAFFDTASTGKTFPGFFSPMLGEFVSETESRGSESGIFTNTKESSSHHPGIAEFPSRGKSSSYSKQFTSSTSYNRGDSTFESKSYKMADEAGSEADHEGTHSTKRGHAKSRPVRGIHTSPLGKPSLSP
T2 sequence (P02675 31-491, chain 2 of 3): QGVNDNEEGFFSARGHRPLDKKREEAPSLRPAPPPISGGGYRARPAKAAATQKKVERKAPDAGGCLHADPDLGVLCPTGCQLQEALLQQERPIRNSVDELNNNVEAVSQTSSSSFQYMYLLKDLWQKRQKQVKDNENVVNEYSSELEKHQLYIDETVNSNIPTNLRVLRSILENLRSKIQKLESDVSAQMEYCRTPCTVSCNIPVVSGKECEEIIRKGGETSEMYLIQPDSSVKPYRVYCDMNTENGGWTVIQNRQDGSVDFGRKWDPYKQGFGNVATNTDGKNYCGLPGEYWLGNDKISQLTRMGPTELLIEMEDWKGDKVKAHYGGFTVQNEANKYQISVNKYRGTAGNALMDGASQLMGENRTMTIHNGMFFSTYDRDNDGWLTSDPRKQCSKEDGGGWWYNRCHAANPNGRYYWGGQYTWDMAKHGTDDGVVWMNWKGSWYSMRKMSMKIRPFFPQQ
T2 sequence (P02679 other isoform, or with tags, fused parts or gaps, chain 3 of 3): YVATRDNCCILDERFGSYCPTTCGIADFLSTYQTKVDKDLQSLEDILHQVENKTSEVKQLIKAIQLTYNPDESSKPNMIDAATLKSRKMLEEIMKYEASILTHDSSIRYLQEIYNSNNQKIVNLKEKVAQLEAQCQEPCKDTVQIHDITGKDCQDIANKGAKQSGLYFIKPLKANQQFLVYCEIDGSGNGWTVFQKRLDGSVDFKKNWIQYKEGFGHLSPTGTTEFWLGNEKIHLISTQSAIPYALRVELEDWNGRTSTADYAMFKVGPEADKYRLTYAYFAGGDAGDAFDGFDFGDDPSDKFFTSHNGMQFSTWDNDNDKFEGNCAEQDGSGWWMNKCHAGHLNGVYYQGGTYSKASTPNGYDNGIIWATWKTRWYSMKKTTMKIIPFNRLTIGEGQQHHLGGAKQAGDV
Bovine serum albumin, sequence (P02769 25-607, one chain of several): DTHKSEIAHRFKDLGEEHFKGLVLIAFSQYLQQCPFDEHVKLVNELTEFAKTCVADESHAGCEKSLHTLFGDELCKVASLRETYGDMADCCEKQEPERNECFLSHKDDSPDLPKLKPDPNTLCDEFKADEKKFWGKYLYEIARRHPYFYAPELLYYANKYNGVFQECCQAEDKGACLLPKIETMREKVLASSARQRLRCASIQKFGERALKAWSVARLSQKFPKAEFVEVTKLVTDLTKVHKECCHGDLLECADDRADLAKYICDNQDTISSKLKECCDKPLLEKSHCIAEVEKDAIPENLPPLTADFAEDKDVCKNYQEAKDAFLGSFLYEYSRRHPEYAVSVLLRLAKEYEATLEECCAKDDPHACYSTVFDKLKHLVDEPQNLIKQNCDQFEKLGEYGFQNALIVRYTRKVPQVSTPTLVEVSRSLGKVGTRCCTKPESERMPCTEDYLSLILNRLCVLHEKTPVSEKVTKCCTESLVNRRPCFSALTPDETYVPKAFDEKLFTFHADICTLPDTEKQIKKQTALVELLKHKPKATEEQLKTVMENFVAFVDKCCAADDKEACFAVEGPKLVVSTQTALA

For the molecule GCGCGGTCCCGATTTGGTGTAAAATTCCCTCAGCCCTACA (ssDNA) [3'Biotin-ADI1701], the Kd in data set [1] amounted to 2.5 nM. Also, the binding result with Fibrinogen [2] is reported as “no binding”.

For GCGCGGTCCCGATTTGGTGTAAAATTCCCTCAGCCCTACA (ssDNA) [ADI1701], the binding result with Fibrinogen [3] is reported as “no binding”.

Regarding GCGCGGTCCCGATTTGGTGTAAAATTCCCTCAGCCCTACA (ssDNA) [5'Biotin-ADI1701], the Kd in data set [4] is ~10 nM.

In the case of GCGCGGTCCCGATTTGGTGTAAAATTCCCTCAGCCCTACA (ssDNA, NH2-C6 linker, latex conjugate) [ADI1701-latex (NH2-C6-ADI1701 coupled to beads)], the binding result is reported as “no binding” with Bovine serum albumin and “binds” in data set [5].

For the molecule TTGTTAGATACTCGCTCTCATCCGCCGTACAACTGGCCAG (ssDNA) [Scrambled Sequence 1], in data set [6], the binding result was “no binding”.

As to ACTACCGATGCGGACTTATCCGCACGTACCGCTATTGTAG (ssDNA) [Scrambled Sequence 2], in data set [6], the binding result is “no binding”.
